According to publication PMC10403523:

Columns and labels:
[1] = tested on: yeast SWI/SNF complex (WT) (Saccharomyces cerevisiae); assay: EMSA; conditions: apparent KD, Kd EMSA: 6.7 nM DNA or nucleosome, 1.3-23 nM SWI/SNF, 4% native PAGE (79:1), Methods: prebinding 30 C, 15 min, gel in 0.5x TBE, binding buffer, salt and pH not …
[2] = molecular target: 29N59 mononucleosome: recombinant Xenopus laevis histone octamer on 601 DNA with 29 and 59 bp of flanking DNA (Xenopus laevis); assay: native gel or EMSA; apparent KD; 6.7 nM 29N59 nucleosomes, WT or ΔAT SWI/SNF varied from 1.3 to 23 nM; 4% native polyacrylamide gel (79:1)
[3] = tested on: yeast SWI/SNF complex (WT) (Saccharomyces cerevisiae); assay: competition; conditions: EMSA competition against 601 DNA; Kd EMSA: 6.7 nM DNA or nucleosome, 1.3-23 nM SWI/SNF, 4% native PAGE (79:1); Methods: prebinding 30 C, 15 min, gel in 0.5x …; binding buffer, salt and pH not

Substance: 29N59 nucleosome
- Kd ([1]; 6.7 nM nucleosome, recombinant Xenopus laevis histone octamer): 7.67 nM

Substance: yeast SWI/SNF complex, wild type (from UniProt P22082 1-1703; P18480 1-905; Q12406 1-477; P09547 1-1314; P18888 1-332)
- Kd [2]: 7.67 nM

Substance: 235 bp 601 DNA
- Kd ([1]; 6.7 nM DNA): 7.87 nM

Substance: yeast SWI/SNF complex with both AT-hooks of Snf2 deleted (from UniProt P22082 1-1703; P18480 1-905; Q12406 1-477; P09547 1-1314; P18888 1-332)
- Kd [2]: 20.5 nM

Substance: pUC19 plasmid
- Ki [3]: 12 nM
